Residue numbers refer to the chain shown, from its start. No end group written: not given here. fluorescein = fluorescein label attached to the Cys side chain

In test [1] the target is T1, TmrAB G116A^TmrB (Thermus thermophilus, UniProt Q72J05 1-600; Q72J04 1-578, G116A).
T1 construct: TmrA, Thermus thermophilus, the chain of TmrAB with the canonical Walker B motif; TmrB, Thermus thermophilus, the chain of TmrAB with the non-canonical Walker B motif
T1 sequence 1: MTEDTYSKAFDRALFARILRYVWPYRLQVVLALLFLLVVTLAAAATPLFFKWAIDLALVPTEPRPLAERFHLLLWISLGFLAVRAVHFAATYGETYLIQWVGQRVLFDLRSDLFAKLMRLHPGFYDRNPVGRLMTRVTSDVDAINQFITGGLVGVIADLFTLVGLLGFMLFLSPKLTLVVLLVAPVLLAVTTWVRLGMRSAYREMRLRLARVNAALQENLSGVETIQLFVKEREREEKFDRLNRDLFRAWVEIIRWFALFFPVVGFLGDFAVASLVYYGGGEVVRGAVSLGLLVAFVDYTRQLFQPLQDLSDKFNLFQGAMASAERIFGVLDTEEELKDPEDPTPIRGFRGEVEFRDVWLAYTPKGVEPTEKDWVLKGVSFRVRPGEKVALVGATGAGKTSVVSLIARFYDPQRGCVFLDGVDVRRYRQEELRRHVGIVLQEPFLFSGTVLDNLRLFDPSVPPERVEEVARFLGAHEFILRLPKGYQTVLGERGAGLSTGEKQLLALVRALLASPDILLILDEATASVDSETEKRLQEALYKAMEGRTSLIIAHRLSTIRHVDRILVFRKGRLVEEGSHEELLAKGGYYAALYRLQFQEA
T1 sequence 2: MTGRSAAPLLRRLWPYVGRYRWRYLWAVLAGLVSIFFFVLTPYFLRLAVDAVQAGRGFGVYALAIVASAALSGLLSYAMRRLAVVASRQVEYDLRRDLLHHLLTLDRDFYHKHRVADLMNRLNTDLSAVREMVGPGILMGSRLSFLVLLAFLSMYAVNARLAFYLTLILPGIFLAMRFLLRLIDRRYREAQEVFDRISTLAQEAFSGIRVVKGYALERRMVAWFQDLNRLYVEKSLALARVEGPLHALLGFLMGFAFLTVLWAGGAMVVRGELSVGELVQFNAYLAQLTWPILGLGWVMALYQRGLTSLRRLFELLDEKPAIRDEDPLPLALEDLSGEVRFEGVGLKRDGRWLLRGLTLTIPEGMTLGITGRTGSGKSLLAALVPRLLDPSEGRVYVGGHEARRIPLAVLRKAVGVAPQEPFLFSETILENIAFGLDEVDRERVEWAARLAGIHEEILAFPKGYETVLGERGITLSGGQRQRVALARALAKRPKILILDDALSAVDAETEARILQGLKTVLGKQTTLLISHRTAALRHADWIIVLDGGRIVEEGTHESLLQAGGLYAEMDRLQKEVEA
In words: fluorescence polarisation; 1.7 uM TmrAB with 50 nM RRY(C^Fluorescein)KSTEL in SEC buffer (20 mM HEPES, 150 mM NaCl, pH 7, 0.05% ß-DDM), 15 minutes on ice, in the absence or presence of 5 mM ATP and 10 mM MgCl2; read at 25°C (the results say 4°C); signal normalized to WT without ATP. The conditions noted are these: both partners purified.

In test [2] the target is T2, TmrAB R136A^TmrA (Thermus thermophilus, UniProt Q72J05 1-600; Q72J04 1-578, R136A).
T2 construct: TmrA, Thermus thermophilus, the chain of TmrAB with the canonical Walker B motif; TmrB, Thermus thermophilus, the chain of TmrAB with the non-canonical Walker B motif
T2 sequence 1: T1 sequence 1 with R136A
T2 sequence 2: T1 sequence 2 with A116G
The description is as above. The following applies: both partners purified.

B1: fluorescent transport substrate peptide RRY(C^Fluorescein)KSTEL (peptide)
peptide: RRYC(fluorescein)KSTEL
notes: fluorescein-labelled transport substrate peptide of TmrAB; also called fluorescently-labeled peptide substrate; peptide substrate; source: bought: Genscript
As for B1, the binding result in test [1] and in test [2] was “binds” throughout.

These data come from doi:10.1101/2020.01.12.903617, “The peptide sensor motif stabilizes the outward-facing conformation of TmrAB” (bioRxiv, 2020).
